Patent US6384189 (UAB RESEARCH FOUNDATION, dated 2002)

target: recombinant small latent TGF-β; assay: cell-based or functional assay

| Fold Activation of Latent TGF-β over Baseline (soft agar NRK colony formation) [fold over baseline] | Binder |
| --- | --- |
| 1.9 | KRFKQDGGWSHW [KRFKQDGGWSHW (SEQ ID NO:16)] |
| 2 | KRFKQDGGWSHWSPWSS [KRFKQDGGWSHWSPWSS (SEQ ID NO:15)] |
| 2.3 | KRFKQDGGWSHWSP [KRFKQDGGWSHWSP (SEQ ID NO:14)] |
| 2.1 | KRFKQDGGWWSP [KRFKQDGGWWSP (SEQ ID NO:17)] |

More lines, now with the values behind:

| Binder | Fold Activation of Latent TGF-β over Baseline (soft agar NRK colony formation) [fold over baseline] |
| --- | --- |
| KRFKQDGG [KRFKQDGG (SEQ ID NO:9)] | 2.1 |
| KRFK [KRFK (SEQ ID NO:5)] | 2 |

target: recombinant small latent TGF-β; assay: cell-based or functional assay; remark: another data set of the same source

| Fold Activation of Latent TGF-β over Baseline (soft agar NRK colony formation) [fold over baseline] | Binder |
| --- | --- |
| 2 | HRFK [HRFK (SEQ ID NO:6)] |
| 2.2 | KKFK [KKFK (SEQ ID NO:32)] |
| 2 | KRFK [KRFK (SEQ ID NO:5)] |
| 2 | QRFK [QRFK (SEQ ID NO:8)] |
